Laboratory results: publication PMC4159269

What was measured:
Assay in all cases: co-IP; HEK293T co-transfected with FLAG-Siah construct and HA-PHD3; lysate on anti-FLAG M2 agarose beads, 4°C 1 hour, washed with NP40 lysis buffer; blot with anti-HA; densitometry as percentage of WT Siah2 SBD for Fig. 7c
[1] = target: SBD[S1]^NT[S2]^CT (SBD chimera with Siah1 N-terminus and Siah2 C-terminus) (human)
[2] = target: [S1-6Mut]^NT[S2]^CT (6Mut = E17S/P21H/A26P/P57S/Q62A/F98H) (human)
[3] = target: [S1-8Mut]^NT[S2]^CT (8Mut = N3S/E17S/P21H/A26P/F34Y/P57S/Q62A/F98H) (human)

binding as percentage of the binding of WT Siah2 SBD to PHD3 (densitometry) [1]: 4 percent
binding as percentage of the binding of WT Siah2 SBD to PHD3 (densitometry) [2]: 29 percent
binding as percentage of the binding of WT Siah2 SBD to PHD3 (densitometry) [3]: 48 percent
Substance: HA-PHD3 (prolyl hydroxylase 3) (from UniProt Q9H6Z9 1-239) (natural protein)
